Patent US12304944

What was measured:
[1] = system: hFIX R338L (codon-optimized human factor IX carrying the R338L mutation)
[2] = system: hFIX R338L-2Fc (codon-optimized human factor IX R338L, XIa-cleavable linker, IgG1 Fc, 3xGGGS linker, IgG1 Fc)
Chain of hFIX R338L-2Fc (codon-optimized human factor IX R338L, XIa-cleavable linker, IgG1 Fc, 3xGGGS linker, IgG1 Fc) (chain, as listed by the source R338L R338L): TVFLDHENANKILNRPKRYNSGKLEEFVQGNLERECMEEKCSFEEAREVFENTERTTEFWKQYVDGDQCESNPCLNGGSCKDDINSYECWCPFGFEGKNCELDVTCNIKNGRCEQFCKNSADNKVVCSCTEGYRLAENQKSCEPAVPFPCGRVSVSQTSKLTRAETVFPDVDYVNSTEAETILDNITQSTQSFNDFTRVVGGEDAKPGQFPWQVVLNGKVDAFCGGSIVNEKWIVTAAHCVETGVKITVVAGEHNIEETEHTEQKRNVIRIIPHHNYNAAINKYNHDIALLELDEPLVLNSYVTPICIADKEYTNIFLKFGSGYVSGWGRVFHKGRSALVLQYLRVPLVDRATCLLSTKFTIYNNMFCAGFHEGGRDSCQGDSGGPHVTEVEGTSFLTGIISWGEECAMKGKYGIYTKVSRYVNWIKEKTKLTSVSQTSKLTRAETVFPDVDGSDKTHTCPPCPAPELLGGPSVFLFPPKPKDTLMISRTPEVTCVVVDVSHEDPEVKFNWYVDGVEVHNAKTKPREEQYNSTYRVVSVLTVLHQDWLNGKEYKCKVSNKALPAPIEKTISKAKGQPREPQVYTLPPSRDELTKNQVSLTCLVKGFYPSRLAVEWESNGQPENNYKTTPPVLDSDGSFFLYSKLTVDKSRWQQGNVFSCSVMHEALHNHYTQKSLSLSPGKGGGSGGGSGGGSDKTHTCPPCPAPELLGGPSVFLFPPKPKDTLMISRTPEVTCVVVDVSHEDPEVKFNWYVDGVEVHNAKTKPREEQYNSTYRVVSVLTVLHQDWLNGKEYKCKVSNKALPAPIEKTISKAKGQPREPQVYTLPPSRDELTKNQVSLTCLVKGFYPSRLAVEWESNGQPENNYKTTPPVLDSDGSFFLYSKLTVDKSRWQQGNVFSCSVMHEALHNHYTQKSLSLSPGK

Chain of hFIX R338L (codon-optimized human factor IX carrying the R338L mutation) (chain, as listed by the source R338L R338L): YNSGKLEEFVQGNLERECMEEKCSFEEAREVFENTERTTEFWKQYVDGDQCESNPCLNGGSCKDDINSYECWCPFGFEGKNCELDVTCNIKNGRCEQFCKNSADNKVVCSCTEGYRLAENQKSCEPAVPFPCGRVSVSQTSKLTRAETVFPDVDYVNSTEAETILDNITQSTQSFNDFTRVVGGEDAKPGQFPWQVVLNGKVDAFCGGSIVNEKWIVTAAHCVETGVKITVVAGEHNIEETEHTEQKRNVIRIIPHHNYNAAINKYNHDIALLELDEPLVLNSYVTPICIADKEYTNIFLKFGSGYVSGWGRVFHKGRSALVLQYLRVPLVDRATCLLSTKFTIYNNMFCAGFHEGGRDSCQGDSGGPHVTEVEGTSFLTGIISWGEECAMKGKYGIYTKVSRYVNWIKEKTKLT

activated factor XI (XIa)
cleavage by XIa, western blot of conditioned media treated or not with XIa [1]: Only low levels of partial XIa cleavage of media derived unpurified hFIX could be observed | cleavage by XIa, western blot of conditioned media treated or not with XIa [2]: Only low levels of partial XIa cleavage of media derived unpurified hFIX could be observed | processing by XIa in vitro [2]: its translated protein was efficiently processed by XIa
